The target in test [1] is T1, B-Raf kinase (UniProt P15056 448-723, limits assumed). The test can be described thus: direct binding affinity (Kd; values in FIG. 14).
The target of test [2] is T1, B-Raf kinase. The test can be described thus: intrinsic tryptophan fluorescence (ITF), column head 'Kd (ITF) (µM)'.
Description: Fluorescence intensity was measured with a Hitachi F-2500 Fluorescence Spectrophotometer. A 1.6 mL of protein solution (0.5 μM) was placed in a cuvette and equilibrated at 15° C. for 1 hour. After equilibration, small increments (2-15 μL) of the ligand solution were injected in the cuvette. The experiments were performed in 20 mM HEPES buffer (pH 7.5), 10 mM MgCl2, 30 mM NaCl. […] The slits were set at 10 and 10 nm in the excitation and emission respectively. To determine dilution effect of B-Raf (due to ligand addition) and any fluorescence effect by unbound ligand, a blank sample containing Trp with the same fluorescence signal was titrated with ligand additions as described above. The sample absorbance was kept below 0.1 to minimize the inner filter effect.
Test [3] addresses T1, B-Raf kinase. The test can be described thus: binding affinity, Table 3 (method not given; the Methods describe fluorescence titration).

The values below come from US20220127585A1 (UNIVERSITY OF SOUTH CAROLINA, published 2022).

By Kd is commonly meant a measure of binding affinity in units of concentration.

Bridges are numbered along the chain shown (N, C = ends). Where no end group is shown, it is not given here. [ ]: non-standard residue; d: D form. The star is where a group is joined. C4 = C-terminal cap: phenethyl group with a meta isopentyloxy group, CC(C)CCOc1cccc(CCN*)c1; NMeR = CN[C@@H](CCCNC(=N)N)C(=O)O; PhAc = O=C(Cc1ccccc1)*

T1 sequence (P15056 448-723 limits assumed): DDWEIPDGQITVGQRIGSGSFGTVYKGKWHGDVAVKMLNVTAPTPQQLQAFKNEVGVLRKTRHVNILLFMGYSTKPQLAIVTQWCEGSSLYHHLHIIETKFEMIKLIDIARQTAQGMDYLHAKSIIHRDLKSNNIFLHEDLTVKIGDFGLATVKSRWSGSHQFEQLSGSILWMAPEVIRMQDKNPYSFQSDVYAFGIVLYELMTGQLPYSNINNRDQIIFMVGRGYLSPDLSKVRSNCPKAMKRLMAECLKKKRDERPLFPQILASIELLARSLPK

B1: SEQ ID NO: 64 (K-MeR-a-PAE) (peptide)
peptide: K[NMeR][dA]PAE
modifications: also: cyclic, closure not given here
Consider B1, for which, in the test with B-Raf kinase [1], the “fold increase in direct binding affinity compared to SEQ ID NO: 1” value was 225 fold. In the test with B-Raf kinase [2], this molecule registered a Kd of 17 nM.

B2: SEQ ID NO: 48 (KRHVAE) (peptide)
peptide: KRHVAE
modifications: lactam 1-6
In turn, B2 showed a Kd with B-Raf kinase [3] of 300 nM.

B3: SEQ ID NO: 63 (TRHVNI) with N-Cap N2 and C-Cap C4 (peptide)
peptide: PhAc-TRHVNI-C4
SMILES: CC[C@H](C)[C@H](NC(=O)[C@H](CC(N)=O)NC(=O)[C@@H](NC(=O)[C@H](Cc1c[nH]cn1)NC(=O)[C@H](CCCNC(=N)N)NC(=O)[C@@H](NC(=O)Cc1ccccc1)[C@@H](C)O)C(C)C)C(=O)NCCc1cccc(OCCC(C)C)c1
Turning to B3, the Kd in the test with B-Raf kinase [2] is 280 nM.
